Reference: patent publication US8911422B2, “Micro-needle device” (Hisamitsu Pharmaceutical Co., Inc., priority 2010, dated 2014)

Tested on: rats
Assay: in vivo injection with micro-needle device (Example 2), availability
Set-up: species or system rat
Settings: coating range 200 μm
Description: A micro-needle device similar to that of Example 1 was used to perform in vivo injection (rats) to determine availability. Here, 14C-OVA was coated on each of the micro-needles, and a coating range thereof was 200 μm in height including the top of the micro-needle concerned (that is, the range H=200 μm in FIG. 3 (c)). The 14C-OVA coated on the micro-needle device was about 100 μg in total, and pullulan, that is, a coating carrier, was about 100 μg in total.
On injection, used was a spring impact-type applicator capable of giving an impact due to the elastic energy of 0.4 J/cm^2 to the back face of the micro-needle device. The elastic energy of the spring impact-type applicator is determined by the above-described formula (I). A spring constant for yielding the elastic energy of 0.4 J/cm^2 was 0.569 N/mm. In order to determine the availability, a Geiger-Muller (GM) counter tube was used to count radiant rays, and the measurement result was applied to a previously prepared calibration curve to determine an initially coated quantity and a quantity remaining on the micro-needle device peeled after puncture. Then, the remaining quantity was divided by the initially coated quantity to determine the availability.

B1: 14C-OVA (protein, UniProt P01012 2-386, looked up)
Ovalbumin: GSIGAASMEFCFDVFKELKVHHANENIFYCPIAIMSALAMVYLGAKDSTRTQINKVVRFDKLPGFGDSIEAQCGTSVNVHSSLRDILNQITKPNDVYSFSLASRLYAEERYPILPEYLQCVKELYRGGLEPINFQTAADQARELINSWVESQTNGIIRNVLQPSSVDSQTAMVLVNAIVFKGLWEKAFKDEDTQAMPFRVTEQESKPVQMMYQIGLFRVASMASEKMKILELPFASGTMSMLVLLPDEVSGLEQLESIINFEKLTEWTSSNVMEERKIKVYLPRMKMEEKYNLTSVLMAMGITDVFSSSANLSGISSAESLKISQAVHAAHAEINEAGREVVGSAEAGVDAASVSEEFRADHPFLFCIKHIATNAVLFFGRCVSP
modifications: 14C radiolabel
notes: 14C-OVA coated on the micro-needles with pullulan as coating carrier
In the case of B1, the availability (impact 0.4 J/cm^2 given once) is reported as 38%, the availability (impact 0.4 J/cm^2 once, then pushed one minute at 1 kg/patch) is reported as 42% and the availability (impact 0.4 J/cm^2 once, then pushed one minute at 3 kg/patch) is reported as 58%.
